# Experimental data: US20220403048A1, “BINDING MOLECULES TO ARGINASE II [ARG2]” (Cancer Research Technology Limited, priority 2019, published 2022)
# T1: human ARG2 (Homo sapiens, UniProt P78540, E275H/R327K)
# T1 construct: His10 (after a GGG linker) (C); made in house; host or cells: E. coli BL21 (DE3)
# T1 sequence (P78540 23-354 E275H/R327K): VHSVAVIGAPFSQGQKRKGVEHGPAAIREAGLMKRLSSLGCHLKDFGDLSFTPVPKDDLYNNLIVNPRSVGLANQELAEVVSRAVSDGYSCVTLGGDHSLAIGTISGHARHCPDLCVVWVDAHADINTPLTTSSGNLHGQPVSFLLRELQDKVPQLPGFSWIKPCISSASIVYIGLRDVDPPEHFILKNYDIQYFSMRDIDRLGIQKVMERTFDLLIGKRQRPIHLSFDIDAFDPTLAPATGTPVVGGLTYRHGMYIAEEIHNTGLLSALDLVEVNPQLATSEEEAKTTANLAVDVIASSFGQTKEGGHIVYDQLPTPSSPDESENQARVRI
# T2: human ARG1 (Homo sapiens, UniProt P05089)
# T2 construct: Avi tag (N); His10 (after a GGG linker) (C); made in house; host or cells: E. coli BL21 (DE3)
# T2 sequence (P05089 with tags, fused parts or gaps): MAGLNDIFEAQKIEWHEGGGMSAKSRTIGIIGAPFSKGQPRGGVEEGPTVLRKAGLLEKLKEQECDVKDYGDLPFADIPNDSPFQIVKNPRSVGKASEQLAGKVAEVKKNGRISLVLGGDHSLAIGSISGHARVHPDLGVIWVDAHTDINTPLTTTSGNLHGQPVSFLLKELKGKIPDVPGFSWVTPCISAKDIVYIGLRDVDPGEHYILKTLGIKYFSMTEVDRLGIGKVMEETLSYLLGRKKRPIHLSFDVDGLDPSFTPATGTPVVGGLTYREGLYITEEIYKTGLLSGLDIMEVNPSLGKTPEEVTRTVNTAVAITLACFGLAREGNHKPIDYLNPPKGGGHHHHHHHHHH
# How the values were obtained:
# human ARG2 = target: T1, human ARG2; assay: Bio-Layer Interferometry (OctetRED) binding kinetics, human ARG2
# Source text: The OctetRED (Pall ForteBio) instrument was used to assess the kinetic parameters of the interactions between C0020187 and recombinantly produced human ARG2, cynomolgus ARG2 and human ARG1. The Octet biosensor uses an optical analytical technique that analyses the interference pattern of white light reflected from two surfaces: a layer of immobilised protein on the sensor tip, and an internal reference layer. Any changes in binding at the biosensor tip result in a shift in interference pattern, which can be measured in real time. Molecules associating with or dissociating from ligands at the biosensor tip shift the interference pattern and generate a response on the Octet system which is recorded by the acquisition software.
# Typically, a defined concentration of the analyte species is brought into contact with the coupled ligand and any binding is detected as an increased in signal (association phase). This is followed by a period of buffer rinse, during which dissociation of the analyte species from the surface immobilised ligand can be observed as a decrease in signal (dissociation phase). Repetition of this with a range of analyte concentrations provides data for the analysis of binding kinetics.
# An Octet Kinetics Buffer (PBS containing 0.01% BSA and 0.002% Tween20) is typically used as the diluent buffer for the analyte samples and as the flow buffer during the dissociation phase. The experimental data is recorded over time as shift in interference pattern (nm) over time, which is directly proportional to the optical thickness at the biosensor tip, which in turn is an approximate measure of the mass of analyte bound. The proprietary Octet Data Analysis software package can then be used to process data and fit binding models to the data sets. Returned association (ka, M^−1 s^−1) and dissociation (kd, s^−1) rate constants allow calculation of dissociation (KD, M) affinity constants.
# (§1) The affinity of binding between the Fab of C0020187 and human ARG2, cynomolgus ARG2 and human ARG1 was estimated using assays in which the biotinylated ARG antigen was captured on a streptavidin sensor tip. A fresh sensor tip was used for each measurement and no regeneration was used. A series of dilutions of the C0020187 Fab (3.25-240 nM) were individually placed in contact with the ligand surface for a sufficient amount of time to observe sensorgrams that could be fitted to an appropriate binding model with confidence (typically 5 minutes), followed by an appropriate length of dissociation time (typically 10 minutes). Blank reference (0 nM Fab) data were subtracted from each dataset to reduce the impact of any buffer artefacts or non-specific binding effects. An appropriate binding model was then fitted simultaneously to the data from each analyte titration using the Octet Evaluation software.
# Example results for C0020187 are shown in Table 9, showing the association rate constants (ka), dissociation rate constants (kd) and dissociation constants (KD). These parameters were derived from a 1:1 binding fit to the data.
# The affinities of the affinity-matured antibodies to human ARG2 were measured on the OctetRED system as described in section 1.15 using the streptavidin capture method. Typically, an analyte titration range of 1.8 to 120 nM was used.
# The affinities of the second-generation antibodies to human ARG2 were measured on the OctetRED system. A screening assay which stably captures His-tagged ARG2 as the ligand on an anti-His surface was utilised to screen the second-generation candidates as Fabs at an analyte range of 1.8 to 120 nM, with an association time of 5 minutes and a dissociation time of 10 minutes. Sensors were regenerated using 10 mM glycine pH 1.5 after each cycle. Based on this assay, six candidates with estimated affinities in the sub-nanomolar range were identified, and they were further profiled using an extended assay which is more suitable for antibodies of high affinities. […]
# human ARG1 = target: T2, human ARG1; assay: Bio-Layer Interferometry (OctetRED) binding, human ARG1; conditions: Fab analyte up to 120 nM, screening assay on anti-His surface
# Protocol: as §1
# (§2) The binding of affinity-matured antibodies to human ARG1 was also tested on the OctetRED system using a screening assay which stably captures […] as the ligand on an anti-His surface. The Fabs were typically tested in an analyte range of 1.8 to 120 nM, with an association time of 5 minutes and a dissociation time of 10 minutes. Sensors were regenerated using 10 mM glycine pH 1.5 after each cycle.
# as §2, with “Binding” for “The binding”, “the second-generation” for “affinity-matured”, “ARG” for “ARG1”, “were” for “were typically”, “as” for “in an”, “up” for “range of 1.8”
# [1] = Fab as analyte, streptavidin capture, analyte 1.8 to 120 nM, affinity-matured antibodies
# [2] = second-generation Fab, extended assay: association 10 min, dissociation 40 min, 0.47 to 30 nM, streptavidin surface with bio-ARG2
Molecule,ka (human ARG2; [1]),kd (human ARG2; [1]),ka (human ARG2; [2]),kd (human ARG2; [2]),"Results, binding to human ARG1 (BLI) (human ARG1)"
"C0021032 Fab (antibody, V domains shown) VH: EVQLLESGGGLVQPGGSLRLSCAASGFTFSSYAMSWVRQAPGKGLEWVSAYGYGIGSTYYADSVKGRFTISRDNSKNTLYLQMNSLRAEDTAVYYCARLRADLGLYMDLWGRGTLVTVSS VL: QSVLTQPPSVSAAPGQKVTISCSGSSSNIGNHYVSWYQQLPGTAPKLLIYDNSERPSGIPDRFSGSKSGTSATLGITGLQTGDEADYYCGTWDSSLSALVFGGGTKLTVL",427000 M⁻¹ s⁻¹,0.00228 s⁻¹,–,–,–
"C0021096 Fab (antibody, V domains shown) VH: EVQLLESGGGLVQPGGSLRLSCAASGFTFSSYAMSWVRQAPGKGLEWVSAISGYSGYYADSVKGRFTISRDNSKNTLYLQMNSLRAEDTAVYYCARLRADLGLYMDLWGRGTLVTVSS VL: QSVLTQPPSVSAAPGQKVTISCSGSSSNIGNHYVSWYQQLPGTAPKLLIYNTERRMSGIPDRFSGSKSGTSATLGITGLQTGDEADYYCGTWDSSLSALVFGGGTKLTVL",441000 M⁻¹ s⁻¹,0.00154 s⁻¹,–,–,–
"C0021097 Fab (antibody, V domains shown) VH: EVQLLESGGGLVQPGGSLRLSCAASGFTFSSYAMSWVRQAPGKGLEWVSAISYHPGSTYYADSVKGRFTISRDNSKNTLYLQMNSLRAEDTAVYYCARLRADLGLYMDLWGRGTLVTVSS VL: QSVLTQPPSVSAAPGQKVTISCSGSSSNIGNHYVSWYQQLPGTAPKLLIYNTFARPSGIPDRFSGSKSGTSATLGITGLQTGDEADYYCGTWDSSLSALVFGGGTKLTVL",295000 M⁻¹ s⁻¹,0.00146 s⁻¹,–,–,–
"C0021101 Fab (antibody, V domains shown) VH: EVQLLESGGGLVQPGGSLRLSCAASGFTFSSYAMSWVRQAPGKGPEWVSAISGFSPYYADSVKGRFTISRDNSKNTLYLQMNSLRAEDTAVYYCARLRADLGLYMDLWGRGTLVTVSS VL: QSVLTQPPSVSAAPGQKVTISCSGSSSNIGNHYVSWYQQLPGTAPKLLIYNNRSPTSGIPDRFSGSKSGTSATLGITGLQTGDEADYYCGTWDSSLSALVFGGGTKLTVL",314000 M⁻¹ s⁻¹,0.00107 s⁻¹,–,–,–
"C0021118 Fab (antibody, V domains shown) VH: EVQLLESGGGLVQPGGSLRLSCAASGFTFSSYAMSWVRQAPGKGLEWVSASLTNPGSTYYADSVKGRFTISRDNSKNTLYLQMNSLRAEDTAVYYCARLRADLGLYMDLWGRGTLVTVSS VL: QSVLTQPPSVSAAPGQKVTISCSGSSSNIGNHYVSWYQQLPGTAPKLLIYDNSERPSGIPDRFSGSKSGTSATLGITGLQTGDEADYYCATYDTNLSALVFGGGTKLTVL",139000 M⁻¹ s⁻¹,0.00114 s⁻¹,–,–,–
"C0021141 Fab (antibody, V domains shown) VH: EVQLLESGGGLVQPGGSLRLSCAASGFTFYPDPQGWVRQAPGKGLEWVSAYGYGIGSTYYADSVKGRFTISRDNSKNTLYLQMNSLRAEDTAVYYCARLRADLGLYMDLWGRGTLVTVSS VL: QSVLTQPPSVSAAPGQEVTISCSGSSSNIDNHYVSWYQQLPGTAPKLLIYDNSERPSGIPDRFSGSKSGTSATLGITGLQTGDEADYYCGTWDSSLSALVFGGGTKLTVL",326000 M⁻¹ s⁻¹,0.00108 s⁻¹,–,–,–
"C0021142 Fab (antibody, V domains shown) VH: EVQLLESGGGLVQPGGSLRLSCAASGFTFSSYAMSWVRQAPGKGLEWVSAHTHSPGSTYYADSVKGRFTISRDNSKNTLYLQMNSLRAEDTAVYYCARLRADLGLYMDLWGRGTLVTVSS VL: QSVLTQPPSVSAAPGQKVTISCSGSSSNIGNHYVSWYQQLPGTAPKLLIYDNSERPSGIPDRFSGSKSGTSATLGITGLQTGDEADYYCGTWDSSLSALVFGGGTKLTVL",399000 M⁻¹ s⁻¹,0.0011 s⁻¹,–,–,–
"C0021021 Fab (antibody, V domains shown) VH: EVQLLESGGGLVQPGGSLRLSCAASGFTFSSYAMSWVRQAPGKGLEWVSSILFSPGSTYYADSVKGRFTISRDNSKNTLYLQMNSLRAEDTAVYYCARLRADLGLYMDLWGRGTLVTVSS VL: QSVLTQPPSVSAAPGQKVTISCSGSSSNIGNHYVSWYQQLPGTAPKLLIYDNSERPSGIPDRFSGSKSGTSATLGITGLQTGDEADYYCGTWDSSLSALVFGGGTKLTVL",473000 M⁻¹ s⁻¹,0.002 s⁻¹,–,–,–
"C0021144: anti-ARG2 antibody, VH SEQ ID NO: 252, VL SEQ ID NO: 257 (antibody, listed as Homo sapiens, V domains shown, C0021144) VH: EVQLLESGGGLVQPGGSLRLSCAASGFTFRYDYHVWVRQAPGKGLEWVSAISGSGGSTYYADSVKGRFTISRDNSKNTLYLQMNSLRAEDTAVYYCARLRADLGLYMDLWGRGTLVTVSS VL: QSVLTQPPSVSAAPGQKVTVSCSGSSSNIGNHHVSWYQQLPGTAPKLLIYDTTVLSSGVPDRFSGSKSGTSATLGITGLQTGDEADYYCGTWDELTSNLVFGGGTKLTVL",–,–,195000 M⁻¹ s⁻¹,6.59e-05 s⁻¹,No binding observed
"C0021155: anti-ARG2 antibody, VH SEQ ID NO: 262, VL SEQ ID NO: 267 (antibody, listed as Homo sapiens, V domains shown, C0021155) VH: EVQLLESGGGLVQPGGSLRLSCEASGFTFRYDYHVWVRQAPGKGLEWVSAISGSGGSTYYADPVKGRFTISRDNSKNTLYLQMNSLRAEDTAVYYCARLRADLGLYMDLWGRGTLVTVSS VL: RSVLTQPPSVSAAPGQKVTISCSGSSSNIGNHYVSWYQQLPGTAPKLLIYDTTVLSSGIPDRFSGSKSGTSATLGITGLQTGDEADYYCGTWDELTSNLVFGGGTRLTVL",–,–,159000 M⁻¹ s⁻¹,5.67e-05 s⁻¹,No binding observed
